This is an account of results in patent publication US20240207432A1 (BIOSION, published 2024).

The target of assay [1] is T1, human TROP2-his protein (human, UniProt P09758 27-274).
T1 construct: Biotin-labelled in the ELISAs, unlabelled analyte in Biacore; also called biotin-labeled human TROP2-his protein; biotin human Trop2-his
T1 sequence: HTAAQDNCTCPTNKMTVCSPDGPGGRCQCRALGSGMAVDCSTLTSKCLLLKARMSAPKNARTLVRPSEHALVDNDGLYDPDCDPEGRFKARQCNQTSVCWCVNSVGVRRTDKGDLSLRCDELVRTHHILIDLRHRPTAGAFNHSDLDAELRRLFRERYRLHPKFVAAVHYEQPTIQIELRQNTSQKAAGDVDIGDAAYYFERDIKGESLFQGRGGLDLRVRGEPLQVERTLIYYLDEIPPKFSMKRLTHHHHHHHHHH
Nature of the assay: epitope grouping ELISA, 15 ug/ml antibody premixed with biotin human TROP2-his; competitor: coated BM2. The protocol: (§1) Firstly, capture ELISA was performed to determine the concentration of biotin-labeled human Trop2 proteins appropriate for the epitope binning test. […] The plates were washed for 4 times, added with 100 μl/well of serially diluted biotin human Trop2-his proteins (SEQ ID NO: 67) in PBST with 2.5% non-fatty milk (starting from 1.3 μg/ml with a 5-fold serial dilution), and incubated for 40 min at 37° C. Then the plates were washed for 4 times and added with 100 μl/vell of HRP-streptavidin (Jackson Immuno Research, Cat #016-030-084). The plates were incubated for another 40 min at 37° C. Then the plates were washed again, and 100 μl/well TMB was added for color development at RT for 15 min followed by quenching with 50 μl 1M H₂SO₄. The OD values at 450 nm were read.
(§2) With the appropriate concentration determined above, epitope grouping ELISA was performed. […] ELISA plates were washed once with wash buffer (PBS+0.05% v/v Tween-20, PBST) and then blocked with 200 μl blocking buffer (5% w/w non-fatty milk in PBST) for 2 hours at 37° C. […] The mixtures were incubated at room temperature for 40 minutes. After plate washing for 4 times, the antibody/biotin-TROP2-his protein mixtures were added to the antibody coated plates, 100 μl per well, and incubated for another 40 min at 37° C. Then 100 μl/well of HRP-streptavidin was added and incubated for 40 min. Then OD₄₅₀ values were determined and the cross-competition capability was calculated (cross-competition capability of antibody X (%)=(OD₄₅₀ of Antibody X-[…] of Blank)/(OD₄₅₀ of no mAb-OD₄₃₀ of Blank)*100%).

Assay [2] concerns the target T1, human TROP2-his protein. Nature of the assay: epitope grouping ELISA, 15 ug/ml antibody premixed with biotin human TROP2-his; competitor: coated huA1E4F7D4-V16. As to the method:
as §1, §2
(In an ELISA, binding on a coated surface is turned into a signal by an enzyme label.)

Assay [3] deals with T1, human TROP2-his protein. Nature of the assay: SPR Biacore, human TROP2-his analyte. Background: SPR reads the build-up and loss of mass on a sensor chip optically.
Assay [4] has as its target T2, full length human TROP2 on 293F-TROP2 cells (human, UniProt P09758 27-323).
T2 construct: also called 293F-TROP2 cells (clone ID #3A8); cell surface TROP2
T2 sequence: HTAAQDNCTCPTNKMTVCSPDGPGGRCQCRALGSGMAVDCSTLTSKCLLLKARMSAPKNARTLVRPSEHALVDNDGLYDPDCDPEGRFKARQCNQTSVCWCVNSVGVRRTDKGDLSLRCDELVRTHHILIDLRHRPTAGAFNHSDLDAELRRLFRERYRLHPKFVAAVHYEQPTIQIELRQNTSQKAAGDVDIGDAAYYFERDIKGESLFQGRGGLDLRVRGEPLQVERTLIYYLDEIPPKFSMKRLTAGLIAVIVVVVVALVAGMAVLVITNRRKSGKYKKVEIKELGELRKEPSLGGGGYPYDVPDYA
The assay is described as follows: FACS on 293F-TROP2 cells, MFI.

For assay [5], the target named is T1, human TROP2-his protein. The assay is described as follows: epitope grouping ELISA, 15 ug/ml antibody premixed with biotin human TROP2-his; competitor: coated BM1. The protocol: as §1, §2
The target of assay [6] is T1, human TROP2-his protein. The assay is described as follows: competitive ELISA: BM1 coated at 1 ug/mL, antibody premixed with biotin human TROP2-his; blocked: binding of TROP2-his to coated BM1. The protocol:
The mouse anti-TROP2 antibodies were tested for epitope binding in a competitive ELISA assay. […] ELISA plates were washed once with wash buffer (PBS+0.05% v/v Tween-20, PBST) and then blocked with 200 μl blocking buffer (5% w/v non-fatty milk in PBST) for 2 hours at 37° C. While blocking, the anti-TROP2 antibodies or controls were diluted with biotin labeled human TROP2-his protein (SEQ ID NO: 67, 34 ng/mL in 2.5% wA non-fatty milk in PBST), starting at 80 nM with a 5-fold serial dilution, and incubated at room temperature for 40 minutes. After plate washing for 4 times, the antibody/TROP2-his protein mixtures were added to the antibody coated plates, 100 μl per well. After incubation at 37° C. for 40 minutes, plates were washed 4 times again using wash buffer. Then the plates were added and incubated with 100 μl Peroxidase Streptavidin (1:10000 dilution in PBST buffer. Jackson Immunoresearch, Cat #016-030-084) for 40 minutes at 37° C. Plates were washed again using wash buffer. Finally, TMB was added and the reaction was stopped using 1M H₂SO₄. The absorbance of each well was read on a microplate reader using dual wavelength mode with 450 nm for TMB and 630 nm as the reference wavelength, and the OD (450-630) values were plotted against antibody concentration. Data was analyzed using Graphpad Prism software and IC₅₀ values were reported.

Assay [7] has as its target T3, cynomolgus TROP2-his protein (cynomolgus monkey, UniProt P09758 27-272 (human entry), limits assumed).
T3 construct: no cleavage site is stated; also called Cynomolgus monkey TROP2-his protein; monkey TROP2
T3 chain: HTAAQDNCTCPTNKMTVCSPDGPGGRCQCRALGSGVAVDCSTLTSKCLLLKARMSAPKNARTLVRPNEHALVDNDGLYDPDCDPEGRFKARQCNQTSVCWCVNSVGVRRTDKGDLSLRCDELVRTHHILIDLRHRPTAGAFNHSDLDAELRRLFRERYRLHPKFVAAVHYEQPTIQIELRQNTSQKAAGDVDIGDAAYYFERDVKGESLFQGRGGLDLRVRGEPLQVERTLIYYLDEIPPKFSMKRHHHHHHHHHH
The assay is described as follows: SPR Biacore T200, mAb captured on anti-mouse IgG CM5 chip, TROP2-his analyte. The protocol:
(§3) Un-reacted moieties on the chip (biosensor) surface were blocked with ethanolamine. […] The antigen-antibody association kinetics was followed for 2 minutes and the dissociation kinetics was followed for 10 minutes. The association and dissociation curves were fit to a 1:1 Langmuir binding model using BIAcore evaluation software.

For assay [8], the target named is T1, human TROP2-his protein. Described as above. As to the method:
as §3

Assay [9] has as its target T1, human TROP2-his protein. Nature of the assay: capture ELISA, antibody captured on anti-mouse IgG Fc coat, biotin human TROP2-his in solution, OD(450-630). The protocol:
Plates were washed once with wash buffer (PBS+0.05% v/v Tween-20, PBST) and then blocked with 200 μl/well blocking buffer (5% w/v non-fatty milk in PBST) for 2 hours at 37° C. […] Plates containing captured anti-TROP2 antibodies were incubated with biotin-labeled human TROP2-his protein (prepared in house, SEQ ID NO: 67, 56.7 ng/mL in 2.5% w/v non-fatty milk in PBST, 100 μl/well) for 40 minutes at 37° C., washed 4 times, and incubated with streptavidin conjugated HRP (1:10000 dilution in PBST, Jackson Immuno Research, Cat #016-030-084, 100 μl/well) for 40 minutes at 37° C. After a final wash, plates were incubated with 100 μl/well ELISA substrate TMB (Innoreagents, Cat #TMB-S-002) at room temperature. The reaction was stopped in 3-10 minutes at room temperature with 50 μl/well 1M H₂SO₄, and the absorbance of each well was read on a microplate reader using dual wavelength mode with 450 nm for TMB and 630 nm as the reference wavelength. The OD (450-630) values were plotted against antibody concentration. Data was analyzed using Graphpad Prism software and EC₅₀ values were reported.

The target of assay [10] is T3, cynomolgus TROP2-his protein. The assay is described as follows: indirect ELISA, cynomolgus TROP2-his coated at 2 ug/mL, OD(450-630). As to the method:
The anti-TROP2 antibodies of the disclosure were tested for their cross-reaction with cynomolgus TROP2 proteins. Briefly, 96-well micro plates were coated with 100 μl 2 μg/ml cynomolgus TROP2-his proteins (prepared in-house with SEQ ID NO: 70) in carbonate/bicarbonate buffer (pH 9.6) overnight at 4° C. ELISA plates were washed once with wash buffer (PBS+0.05% v/v Tween-20, PBST) and then blocked with 200 μl/well blocking buffer (5% w/v non-fatty milk in PBST) for 2 hours at 37° C. […] After a final wash, plates were incubated with 100 μl/well TMB (Innoreagents) at room temperature. The reaction was stopped 3-10 minutes later at room temperature with 50 μl/well 1M H₂SO₄, and the absorbance of each well was read on a microplate reader using dual wavelength mode with 450 nm for TMB and 630 nm as the reference wavelength. The OD (450-630) values were plotted against antibody concentration. Data was analyzed using Graphpad Prism software and EC₅₀ values were reported.

B1: BM2 (in house made analog of Datopotamab) (antibody, human IgG1, kappa, V domains shown)
VH: QVQLVQSGAEVKKPGASVKVSCKASGYTFTTAGMQWVRQAPGQGLEWMGWINTHSGVPKYAEDFKGRVTISADTSTSTAYLQLSSLKSEDTAVYYCARSGFGSSYWYFDVWGQGTLVTVSS
VL: DIQMTQSPSSLSASVGDRVTITCKASQDVSTAVAWYQQKPGKAPKLLIYSASYRYTGVPSRFSGSGSGTDFTLTISSLQPEDFAVYYCQQHYITPLTFGQGTKLEIKR
For the molecule B1, the results for the OD450 with human TROP2-his protein [1], with human TROP2-his protein [2] and in the assay with human TROP2-his protein [5] were 0.354 OD450, 1.63 OD450 and 0.519 OD450, respectively. Besides, in the assay with human TROP2-his protein [3], the equilibrium dissociation constant (Kd) (as a rule, the concentration at which binding is half-saturated) worked out at 28.7 nM. In the assay with human TROP2-his protein [3], the koff (usually a measure of how fast the partners let go of each other) was found to be 0.00364 s⁻¹. For the same molecule, in the assay with human TROP2-his protein [3], the kon (commonly a measure of how fast the partners come together) was found to be 127000 M⁻¹ s⁻¹. Besides, the half-maximal effective concentration (EC50) (commonly the concentration giving half of the maximal effect) in assay [4] worked out at 0.908 nM.

B2: mouse antibody B1G1F5A3 (antibody, V domains shown)
VH: EVQLQQSGPELVKPGTSVKMSCKASGYSFADYSMNWVRQSHGNSLEWIGYIYPNNGASGFNQKFKGKATLTVDKSSSTAYMELHSLTSEDSAVYYCAREQDNSGYCFDYWGQGTSLTVSS
VL: DVVMTQTPLSLAVRLGDQASISCRSSLNLVHSNGNTFLHWYLQRPGQSPKLLIYKVSNRFSGVSDRFSGSGSGTDFTLKISRVEAEDLGVYFCSQTTHVPTFGGGTKLEIK
notes: Mouse monoclonal IgG purified from hybridoma supernatant
Take B2: the IC50 (as a rule, the point on the concentration scale where inhibition reaches its midpoint) in the assay with human TROP2-his protein [6] was determined as 0.516 nM. In addition, in [7], the Kd is 0.568 nM, the koff is 8.86e-05 s⁻¹ and the kon turned out to be 156000 M⁻¹ s⁻¹. In the assay with human TROP2-his protein [8], this molecule yielded a dissociation constant Kd of 0.416 nM, an off-rate constant (koff) of 5.58e-05 s⁻¹ and a kon of 134000 M⁻¹ s⁻¹. In addition, the EC50 with human TROP2-his protein [9] was determined as 0.335 nM. In addition, in [10], a half-maximal response (EC50) required 0.863 nM.
